Test results published in patent US20140186354A1 (published 2014).

T1: HER4 ECD-HRG complex (human, UniProt Q15303 26-651)
T1 construct: HER4 ECD pre-incubated with a 5-fold molar excess of Heregulin; also called Her-4 ECD/Heregulin complex
T1 sequence 1: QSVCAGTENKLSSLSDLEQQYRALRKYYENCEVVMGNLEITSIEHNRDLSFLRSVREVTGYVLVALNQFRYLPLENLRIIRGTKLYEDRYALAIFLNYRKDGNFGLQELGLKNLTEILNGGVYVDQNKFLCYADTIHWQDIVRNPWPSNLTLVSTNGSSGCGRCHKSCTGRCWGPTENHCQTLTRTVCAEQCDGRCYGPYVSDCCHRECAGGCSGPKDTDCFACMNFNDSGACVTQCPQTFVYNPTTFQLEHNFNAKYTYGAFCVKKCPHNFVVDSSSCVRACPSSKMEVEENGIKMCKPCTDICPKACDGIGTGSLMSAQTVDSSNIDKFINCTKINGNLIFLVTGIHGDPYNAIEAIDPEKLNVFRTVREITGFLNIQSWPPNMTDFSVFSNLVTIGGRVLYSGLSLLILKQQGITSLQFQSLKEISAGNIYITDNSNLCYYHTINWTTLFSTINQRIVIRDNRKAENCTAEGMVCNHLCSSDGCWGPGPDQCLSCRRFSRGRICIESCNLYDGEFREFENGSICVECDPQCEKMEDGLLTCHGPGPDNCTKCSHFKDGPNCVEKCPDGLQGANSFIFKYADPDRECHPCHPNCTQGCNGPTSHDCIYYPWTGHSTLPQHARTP
T1 sequence 2: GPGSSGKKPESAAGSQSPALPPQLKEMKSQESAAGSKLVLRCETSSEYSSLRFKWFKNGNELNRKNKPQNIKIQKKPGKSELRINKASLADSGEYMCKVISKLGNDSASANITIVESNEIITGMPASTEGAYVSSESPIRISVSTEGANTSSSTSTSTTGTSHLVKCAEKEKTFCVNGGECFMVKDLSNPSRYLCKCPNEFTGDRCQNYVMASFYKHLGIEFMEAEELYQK

T2: human recombinant HER4 ECD (human, UniProt Q15303 26-651)
T2 sequence: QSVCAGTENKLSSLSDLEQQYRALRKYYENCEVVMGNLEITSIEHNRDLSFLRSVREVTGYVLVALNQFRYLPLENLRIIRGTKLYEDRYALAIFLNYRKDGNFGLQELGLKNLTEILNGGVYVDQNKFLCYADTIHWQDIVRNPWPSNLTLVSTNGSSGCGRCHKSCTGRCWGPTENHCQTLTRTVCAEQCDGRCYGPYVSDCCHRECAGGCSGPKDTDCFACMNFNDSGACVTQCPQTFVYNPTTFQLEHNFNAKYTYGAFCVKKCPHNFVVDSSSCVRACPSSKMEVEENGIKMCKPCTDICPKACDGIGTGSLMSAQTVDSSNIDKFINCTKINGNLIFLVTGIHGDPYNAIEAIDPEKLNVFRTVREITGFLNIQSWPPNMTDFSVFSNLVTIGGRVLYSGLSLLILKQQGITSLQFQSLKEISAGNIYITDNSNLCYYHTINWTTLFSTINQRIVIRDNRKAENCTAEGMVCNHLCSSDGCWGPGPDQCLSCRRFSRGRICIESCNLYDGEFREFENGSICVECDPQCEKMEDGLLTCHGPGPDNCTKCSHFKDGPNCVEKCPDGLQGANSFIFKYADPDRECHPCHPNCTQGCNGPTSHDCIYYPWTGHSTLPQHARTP


Key:
[1] = molecular target: T3, HER3 ECD-HRG complex (human, UniProt P21860 20-643); assay: SPR Biacore T100
T3 construct: HER3 ECD pre-incubated with a 5-fold molar excess of Heregulin (open conformation); also called Her-3 ECD/Heregulin complex
T3 sequence (P21860 20-643 limits assumed, one chain of several): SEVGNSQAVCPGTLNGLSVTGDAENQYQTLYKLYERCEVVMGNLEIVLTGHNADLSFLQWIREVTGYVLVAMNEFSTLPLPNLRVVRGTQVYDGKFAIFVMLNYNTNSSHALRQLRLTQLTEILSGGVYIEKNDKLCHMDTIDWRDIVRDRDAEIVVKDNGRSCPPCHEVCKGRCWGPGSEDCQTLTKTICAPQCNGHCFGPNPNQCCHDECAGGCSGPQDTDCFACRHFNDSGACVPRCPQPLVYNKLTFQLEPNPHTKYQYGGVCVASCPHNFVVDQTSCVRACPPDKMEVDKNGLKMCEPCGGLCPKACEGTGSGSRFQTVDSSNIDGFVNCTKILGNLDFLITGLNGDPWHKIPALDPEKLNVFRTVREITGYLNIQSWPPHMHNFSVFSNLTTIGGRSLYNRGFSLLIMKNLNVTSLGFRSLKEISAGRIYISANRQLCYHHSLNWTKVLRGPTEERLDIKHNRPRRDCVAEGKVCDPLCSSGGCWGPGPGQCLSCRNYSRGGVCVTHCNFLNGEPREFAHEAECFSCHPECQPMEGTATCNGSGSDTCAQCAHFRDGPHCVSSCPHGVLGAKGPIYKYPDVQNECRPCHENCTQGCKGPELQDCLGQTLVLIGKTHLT

[2] = molecular target: T1, HER4 ECD-HRG complex; assay: SPR Biacore T100
[3] = molecular target: T4, human recombinant HER3 ECD (human, UniProt P21860 20-643); assay: complex formed in solution before SPR
T4 construct: 68 kDa; without ligand said to be in the closed conformation; also called human-Her3-ECD
T4 sequence (P21860 20-643): as the sequence (P21860 20-643 limits assumed, one chain of several) above

[4] = molecular target: T2, human recombinant HER4 ECD; assay: complex formed in solution before SPR

Binder	ratio Ka(+Heregulin)/Ka(-Heregulin), against HER3-ECD [1]	ratio MR(+Heregulin)/MR(-Heregulin), against HER3-ECD [1]	ratio Ka(+Heregulin)/Ka(-Heregulin), against HER4-ECD [2]	ratio MR(+Heregulin)/MR(-Heregulin), against HER4-ECD [2]	binding result [3]	binding result [4]
anti-HER3/HER4 antibody M-05-74 (antibody, V domains shown, Murine monoclonal antibody from hybridoma (supernatant or purified full length); also called M-074; M-5-74) VH: QVQLQQSGAELAKPGASVKMSCKTSGYTLTDYWIHWVKQRPGQGLEWIGYINPYTGYTESNQKFKDKATLTADKSSNTAYIQLSSLTSEDSAVYYCARPYYYGDYWGQGTTLTVSS VL: QIVLTQSPAIMSASPGERVTITCSASSSVSYMHWFQQKPGTSPKLLIYSTSNLASGVPARFSGSGSGTSYSLTISRMEAEDAATYYCQQRSSYPFTFGSGTKLEIK	4.85	3	23.9	6	–	–
Recombinant Human Heregulin fragment (HRG) (ligand, also called Heregulin beta (HRG)) GPGSSGKKPESAAGSQSPALPPQLKEMKSQESAAGSKLVLRCETSSEYSSLRFKWFKNGNELNRKNKPQNIKIQKKPGKSELRINKASLADSGEYMCKVISKLGNDSASANITIVESNEIITGMPASTEGAYVSSESPIRISVSTEGANTSSSTSTSTTGTSHLVKCAEKEKTFCVNGGECFMVKDLSNPSRYLCKCPNEFTGDRCQNYVMASFYKHLGIEFMEAEELYQK	–	–	–	–	binds	binds
